# Measurements as given in the supplement of paper PMC9112550, “Optimization of the antimicrobial peptide Bac7 by deep mutational scanning” (BMC Biology, 2022).
# Test system: Escherichia coli TOP10
# Experiment: shrunken log2 fold change of peptide-encoding DNA abundance (4.5 h post-induction vs induction); higher = less antimicrobial activity (less host growth inhibition)
# Conditions: time post-induction: 4.5 h; library: site-saturation at positions 5, 18, 19, 20
# 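Further: peptides expressed intracellularly from a pBAD plasmid library in pooled LB shake-flask culture, induced with 0.3% L-arabinose, DNA abundance read by NGS, three biological replicates, DESeq2 with apeglm shrinkage.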
row,Sequence,shrunken log2 fold change
1,RRIRQRPPRLPRPRPRPRKIPRP,-0.064
2,RRIRTRPPRLPRPRPRPAHTPRP,0.09
3,RRIRIRPPRLPRPRPRPIHVPRP,0.0502
4,RRIRWRPPRLPRPRPRPDCPPRP,0.0548
5,RRIRIRPPRLPRPRPRPYQQPRP,-0.0163
6,RRIRRRPPRLPRPRPRPHFPPRP,0.553
7,RRIRIRPPRLPRPRPRPNYYPRP,-1.07
8,RRIRLRPPRLPRPRPRPFCDPRP,-0.366
9,RRIRQRPPRLPRPRPRPWGDPRP,-0.138
10,RRIRKRPPRLPRPRPRPPIDPRP,0.185
11,RRIRLRPPRLPRPRPRPSAWPRP,-0.0766
12,RRIRQRPPRLPRPRPRPIVNPRP,-0.0197
13,RRIRGRPPRLPRPRPRPADFPRP,0.149
14,RRIRWRPPRLPRPRPRPHQMPRP,-0.34
15,RRIRERPPRLPRPRPRPHRSPRP,-0.103
16,RRIRARPPRLPRPRPRPHLSPRP,0.0969
17,RRIRLRPPRLPRPRPRPSEHPRP,-0.453
18,RRIRSRPPRLPRPRPRPTINPRP,-0.229
19,RRIRIRPPRLPRPRPRPTNGPRP,-0.166
20,RRIRLRPPRLPRPRPRPLHSPRP,-0.0843
21,RRIRNRPPRLPRPRPRPTIYPRP,-0.106
22,RRIRPRPPRLPRPRPRPKMMPRP,-0.032
23,RRIRCRPPRLPRPRPRPQHYPRP,-0.796
24,RRIRYRPPRLPRPRPRPSARPRP,-0.137
25,RRIRDRPPRLPRPRPRPCVPPRP,-0.135

row,Sequence,shrunken log2 fold change
1,RRIRCRPPRLPRPRPRPPHQPRP,0.746
2,RRIRNRPPRLPRPRPRPSGMPRP,-0.207
3,RRIRVRPPRLPRPRPRPFLKPRP,-0.602
4,RRIRMRPPRLPRPRPRPRSEPRP,0.81
5,RRIRNRPPRLPRPRPRPSKLPRP,-0.582
6,RRIRHRPPRLPRPRPRPIDIPRP,-0.326
7,RRIRCRPPRLPRPRPRPNTWPRP,-0.539
8,RRIRNRPPRLPRPRPRPIKMPRP,-0.404
9,RRIRMRPPRLPRPRPRPYMRPRP,0.0391
10,RRIRKRPPRLPRPRPRPFYKPRP,-0.456
11,RRIRMRPPRLPRPRPRPNFYPRP,-0.00797
12,RRIRGRPPRLPRPRPRPEYAPRP,1.26
13,RRIRGRPPRLPRPRPRPNGEPRP,1.81
14,RRIRHRPPRLPRPRPRPNFCPRP,-0.0463
15,RRIRYRPPRLPRPRPRPKVTPRP,-0.114
16,RRIRSRPPRLPRPRPRPKDLPRP,0.184
17,RRIRNRPPRLPRPRPRPLIVPRP,-0.332
18,RRIRIRPPRLPRPRPRPKHVPRP,-0.406
19,RRIRLRPPRLPRPRPRPHFEPRP,0.118
20,RRIRSRPPRLPRPRPRPAMNPRP,-0.66
21,RRIRWRPPRLPRPRPRPWLDPRP,-0.231
22,RRIRMRPPRLPRPRPRPHFAPRP,0.194
23,RRIRFRPPRLPRPRPRPKRYPRP,0.0178
24,RRIRLRPPRLPRPRPRPFSCPRP,0.0222
25,RRIRCRPPRLPRPRPRPHYLPRP,-0.574

row,Sequence,shrunken log2 fold change
1,RRIRDRPPRLPRPRPRPQTTPRP,0.0462
2,RRIRDRPPRLPRPRPRPSDMPRP,-0.307
3,RRIRKRPPRLPRPRPRPKTHPRP,0.4
4,RRIRIRPPRLPRPRPRPWKVPRP,0.0349
5,RRIRTRPPRLPRPRPRPIWYPRP,-0.601
6,RRIRFRPPRLPRPRPRPTSQPRP,-0.0191
7,RRIRSRPPRLPRPRPRPHAYPRP,0.0215
8,RRIRGRPPRLPRPRPRPDFWPRP,0.593
9,RRIRVRPPRLPRPRPRPCHDPRP,-0.122
10,RRIRNRPPRLPRPRPRPVFNPRP,-0.242
11,RRIRCRPPRLPRPRPRPPCNPRP,-0.355
12,RRIRQRPPRLPRPRPRPRPCPRP,0.409
13,RRIRTRPPRLPRPRPRPINMPRP,-0.0135
14,RRIRMRPPRLPRPRPRPSKQPRP,0.495
15,RRIRVRPPRLPRPRPRPHGIPRP,0.00955
16,RRIRARPPRLPRPRPRPQPWPRP,0.536
17,RRIRNRPPRLPRPRPRPPWEPRP,-0.0446
18,RRIRARPPRLPRPRPRPRKTPRP,0.29
19,RRIRTRPPRLPRPRPRPHWLPRP,0.122
20,RRIRQRPPRLPRPRPRPEEIPRP,0.0447
21,RRIRNRPPRLPRPRPRPFPPPRP,-0.32
22,RRIRWRPPRLPRPRPRPIRIPRP,-0.324
23,RRIRCRPPRLPRPRPRPTIPPRP,-0.417
24,RRIRWRPPRLPRPRPRPTFFPRP,0.312
25,RRIRSRPPRLPRPRPRPTPCPRP,0.254

row,Sequence,shrunken log2 fold change
1,RRIRSRPPRLPRPRPRPLHRPRP,-0.216
2,RRIRCRPPRLPRPRPRPHQQPRP,0.14
3,RRIRTRPPRLPRPRPRPFIFPRP,-0.447
4,RRIRQRPPRLPRPRPRPVEAPRP,0.341
5,RRIRTRPPRLPRPRPRPMCGPRP,-0.171
6,RRIRIRPPRLPRPRPRPPVAPRP,0.123
7,RRIRYRPPRLPRPRPRPWGPPRP,-0.206
8,RRIRVRPPRLPRPRPRPDENPRP,-0.0618
9,RRIRMRPPRLPRPRPRPKIDPRP,0.285
10,RRIRFRPPRLPRPRPRPPREPRP,0.43
11,RRIRSRPPRLPRPRPRPPHEPRP,0.229
12,RRIRARPPRLPRPRPRPVWEPRP,0.228
13,RRIRARPPRLPRPRPRPHVFPRP,0.0326
14,RRIRFRPPRLPRPRPRPMRLPRP,0.947
15,RRIRVRPPRLPRPRPRPRVGPRP,0.655
16,RRIRPRPPRLPRPRPRPKWHPRP,0.173
17,RRIRNRPPRLPRPRPRPWEFPRP,-0.00197
18,RRIRYRPPRLPRPRPRPDWFPRP,-0.987
19,RRIRLRPPRLPRPRPRPKGPPRP,0.28
20,RRIRMRPPRLPRPRPRPYCGPRP,-0.0255
21,RRIRMRPPRLPRPRPRPSKCPRP,-0.0848
22,RRIRHRPPRLPRPRPRPEPRPRP,0.137
23,RRIRHRPPRLPRPRPRPIRFPRP,-0.00142
24,RRIRERPPRLPRPRPRPFWSPRP,-0.109
25,RRIRTRPPRLPRPRPRPGSWPRP,0.844

row,Sequence,shrunken log2 fold change
1,RRIRIRPPRLPRPRPRPCEYPRP,-0.115
2,RRIRDRPPRLPRPRPRPGLDPRP,0.0981
3,RRIRVRPPRLPRPRPRPCQDPRP,-0.336
4,RRIRGRPPRLPRPRPRPGWDPRP,1.09
5,RRIRPRPPRLPRPRPRPDTQPRP,-0.371
6,RRIRLRPPRLPRPRPRPKQSPRP,-0.00745
7,RRIRARPPRLPRPRPRPSPEPRP,0.41
8,RRIRSRPPRLPRPRPRPELRPRP,0.382
9,RRIRQRPPRLPRPRPRPGRPPRP,0.121
10,RRIRHRPPRLPRPRPRPGNNPRP,-0.00857
11,RRIRDRPPRLPRPRPRPNQQPRP,-0.12
12,RRIRCRPPRLPRPRPRPRYSPRP,-0.712
13,RRIRQRPPRLPRPRPRPWMKPRP,0.0212
14,RRIRWRPPRLPRPRPRPNWPPRP,0.214
15,RRIRNRPPRLPRPRPRPELSPRP,0.0211
16,RRIRDRPPRLPRPRPRPWGDPRP,0.13
17,RRIRPRPPRLPRPRPRPFEQPRP,-0.281
18,RRIRWRPPRLPRPRPRPSDTPRP,0.0558
19,RRIRMRPPRLPRPRPRPMARPRP,0.465
20,RRIRRRPPRLPRPRPRPNREPRP,0.232
21,RRIRQRPPRLPRPRPRPTFDPRP,0.168
22,RRIRIRPPRLPRPRPRPYCKPRP,-0.592
23,RRIRFRPPRLPRPRPRPHHIPRP,-0.822
24,RRIRARPPRLPRPRPRPMFNPRP,-0.132
25,RRIRVRPPRLPRPRPRPSFEPRP,-0.214

row,Sequence,shrunken log2 fold change
1,RRIRNRPPRLPRPRPRPHEIPRP,-0.102
2,RRIRCRPPRLPRPRPRPVKCPRP,-0.432
3,RRIRWRPPRLPRPRPRPSSEPRP,0.0908
4,RRIRNRPPRLPRPRPRPFWFPRP,0.195
5,RRIRVRPPRLPRPRPRPLCCPRP,-0.0983
6,RRIRTRPPRLPRPRPRPFMIPRP,-0.0265
7,RRIRQRPPRLPRPRPRPDMGPRP,0.0191
8,RRIRYRPPRLPRPRPRPHLDPRP,-0.185
9,RRIRPRPPRLPRPRPRPWPVPRP,0.317
10,RRIRMRPPRLPRPRPRPDCCPRP,2.61
11,RRIRKRPPRLPRPRPRPFVMPRP,0.261
12,RRIRDRPPRLPRPRPRPNTWPRP,0.23
13,RRIRHRPPRLPRPRPRPQAWPRP,0.00326
14,RRIRIRPPRLPRPRPRPHCIPRP,-2.92
15,RRIRWRPPRLPRPRPRPWFMPRP,-0.222
16,RRIRIRPPRLPRPRPRPESTPRP,-0.325
17,RRIRFRPPRLPRPRPRPWNAPRP,-0.84
18,RRIRDRPPRLPRPRPRPTCQPRP,1.08
19,RRIRERPPRLPRPRPRPTREPRP,0.329
20,RRIRFRPPRLPRPRPRPSVVPRP,-0.786
21,RRIRDRPPRLPRPRPRPVIKPRP,0.0149
22,RRIRWRPPRLPRPRPRPQLCPRP,0.078
23,RRIRDRPPRLPRPRPRPDFQPRP,0.189
24,RRIRWRPPRLPRPRPRPKFLPRP,-0.0144
25,RRIRWRPPRLPRPRPRPIMCPRP,-0.0807
